Experimental findings from publication PMC6328613 are described below.

In assay [1] the target is MBP-Scyl1 (UniProt Q96KG9).
Assay [2] addresses MBP-Scyl1 (UniProt Q96KG9). The assay is described as follows: SPR; ProteOn XPR36, GLH chip; cross-linked anti-MBP antibody, MBP-Scyl1 captured (3000 RU), GST-GORAB variants as analyte at 30 nM, 100 µL/min, 120 s association, 600 s dissociation; 150 mM NaCl, 10 mM HEPES, 0.02% Tween-20, pH 7.4. A general note: Surface plasmon resonance follows binding to a sensor surface in real time, without labels.

Sequence of UniProt Q96KG9 (Q96KG9 whole entry): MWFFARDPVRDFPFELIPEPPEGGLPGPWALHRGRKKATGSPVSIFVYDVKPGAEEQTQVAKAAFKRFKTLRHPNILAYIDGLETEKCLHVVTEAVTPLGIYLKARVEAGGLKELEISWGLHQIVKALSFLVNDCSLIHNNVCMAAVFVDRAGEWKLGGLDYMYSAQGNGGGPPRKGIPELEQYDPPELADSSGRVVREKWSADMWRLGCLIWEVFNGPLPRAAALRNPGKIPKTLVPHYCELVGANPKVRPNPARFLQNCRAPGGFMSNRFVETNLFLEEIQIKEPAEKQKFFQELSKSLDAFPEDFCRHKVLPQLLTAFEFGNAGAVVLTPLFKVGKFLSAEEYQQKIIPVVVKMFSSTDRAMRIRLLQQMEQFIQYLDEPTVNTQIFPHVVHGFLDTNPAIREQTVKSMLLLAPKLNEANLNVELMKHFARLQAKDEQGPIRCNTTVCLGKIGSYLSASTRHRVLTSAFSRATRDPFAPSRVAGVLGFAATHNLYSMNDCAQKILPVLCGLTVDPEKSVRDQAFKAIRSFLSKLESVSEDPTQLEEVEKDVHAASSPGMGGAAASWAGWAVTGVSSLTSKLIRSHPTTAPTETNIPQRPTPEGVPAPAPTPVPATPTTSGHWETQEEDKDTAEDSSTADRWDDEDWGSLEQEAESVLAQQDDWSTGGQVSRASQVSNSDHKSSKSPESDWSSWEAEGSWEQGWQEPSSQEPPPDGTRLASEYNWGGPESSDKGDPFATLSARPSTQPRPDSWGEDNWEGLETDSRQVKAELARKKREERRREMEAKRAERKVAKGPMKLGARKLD

As to “recombinant mouse coatomer isotype γ2ζ1 (from UniProt Q9QXK3 1-871; P61924 1-177; Q5XJY5 1-511; O89079 1-308; O55029 1-905) (complex)”, the recruitment of coatomer (δ-COP, ε-COP) to liposomes in the presence of myr-Arf1, with MBP-Scyl1 against MBP-IPIP27A with MBP-Scyl1 [1] was 2 fold. Usually Kd stands for the concentration at which binding is half-saturated. A high value points to weaker binding. GST-GORAB K190del (natural protein): the Kd with MBP-Scyl1 [2] was found to be 0.52 nM. In other words, the sub-nanomolar range.

For GST-GORAB (natural protein), the dissociation constant Kd with MBP-Scyl1 [2] stood at 0.52 nM.
